In the experiment the target is VP2 capsid protein of Epizootic hemorrhagic disease virus serotype 8, wild type (Epizootic hemorrhagic disease virus serotype 8 (EHDV-8)) (UniProt Q00273). Briefly: SEC; FPLC-SEC on Superose 6 16/300 in PBS 1X pH 7.4, calibrated with the gel filtration HMW calibration kit; oligomeric state from retention time.

Substance “VP2 capsid protein of Epizootic hemorrhagic disease virus serotype 8, wild type (from UniProt Q00273 1-971) (natural protein)” came in with a stoichiometry N of 3.
